Laboratory results reported in US10688131B2, “Peptides and scaffolds for use in immunotherapy against head and neck squamous cell carcinoma and other cancers” (Immatics Biotechnologies GmbH, priority 2016, dated 2020).

The substances below were run against HLA-A*02:01 (Homo sapiens, UniProt P04439, D140Y/D185E/D98H/E176V/E277Q/G131W/G231S/I119V/I121R/I166T/I218V/L300P/L318F/N151K/N90K/P208A/P217A/Q86G/Q94H/R138H/R169H/T345S) (assay: MHC binding assay: UV-ligand exchange with β2m ELISA). Settings: binding of HLA-class I restricted peptides to HLA-A*02:01.
Text: Candidate peptides for T cell based therapies according to the present invention were further tested for their MHC binding capacity (affinity). The individual peptide-MHC complexes were produced by UV-ligand exchange, where a UV-sensitive peptide is cleaved upon UV-irradiation, and exchanged with the peptide of interest as analyzed. Only peptide candidates that can effectively bind and stabilize the peptide-receptive MHC molecules prevent dissociation of the MHC complexes. To determine the yield of the exchange reaction, an ELISA was performed based on the detection of the light chain (β2m) of stabilized MHC complexes. The assay was performed as generally described in Rodenko et al. (Rodenko et al., 2006).
96 well MAXISorp plates (NUNC) were coated over night with 2 ug/ml streptavidin in PBS at room temperature, washed 4× and blocked for 1 h at 37° C. in 2% BSA containing blocking buffer. Refolded HLA-A*02:01/MLA-001 monomers served as standards, covering the range of 15-500 ng/ml. Peptide-MHC monomers of the UV-exchange reaction were diluted 100-fold in blocking buffer. Samples were incubated for 1 h at 37° C., washed four times, incubated with 2 ug/ml HRP conjugated anti-β2m for 1 h at 37° C., washed again and detected with TMB solution that is stopped with […]. Absorption was measured at 450 nm. Candidate peptides that show a high exchange yield (preferably higher than 50%, most preferred higher than 75%) are generally preferred for a generation and production of antibodies or fragments thereof, and/or T cell receptors or fragments thereof, as they show sufficient avidity to the MHC molecules and prevent dissociation of the MHC complexes.

Substance | Peptide exchange (MHC class I binding score, peptide exchange yield)
91 (MLFENMGAYTV; listed as Homo sapiens) [compound 91] | ++++ (>75% = ++++)
31 (HLATVKLLV; listed as Homo sapiens) [compound 31] | ++++ (>75% = ++++)
76 (ILFDEVLTFA; listed as Homo sapiens) [compound 76] | ++++ (>75% = ++++)
24 (LLIAINPQV; listed as Homo sapiens) [compound 24] | ++++ (>75% = ++++)
44 (GLGDDSFPI; listed as Homo sapiens) [compound 44] | ++++ (>75% = ++++)
51 (FLIPSIIFA; listed as Homo sapiens) [compound 51] | ++++ (>75% = ++++)
14 (RIMEGIPTV; listed as Homo sapiens) [compound 14] | ++++ (>75% = ++++)
80 (GLYGIKDDVFL; listed as Homo sapiens) [compound 80] | ++++ (>75% = ++++)
58 (SLSDIQPCL; listed as Homo sapiens) [compound 58] | +++ (>50 = +++)
2 (PVCPPGGIQEV; listed as Homo sapiens) [compound 2] | +++ (>50 = +++)
48 (YLLDYPNNL; listed as Homo sapiens) [compound 48] | +++ (>50 = +++)
77 (SLRAFLMPI; listed as Homo sapiens) [compound 77] | ++ (>20% = ++)
56 (FLQLETEQV; listed as Homo sapiens) [compound 56] | ++++ (>75% = ++++)
40 (LLTPLNLQI; listed as Homo sapiens) [compound 40] | +++ (>50 = +++)
61 (FVAGYIAGV; listed as Homo sapiens) [compound 61] | ++++ (>75% = ++++)
88 (LMAPAPSTV; listed as Homo sapiens) [compound 88] | +++ (>50 = +++)
81 (VLAENPDIFAV; listed as Homo sapiens) [compound 81] | +++ (>50 = +++)
46 (GLISSIEAQL; listed as Homo sapiens) [compound 46] | ++++ (>75% = ++++)
41 (RLNGEGVGQVNISV; listed as Homo sapiens) [compound 41] | ++ (>20% = ++)
54 (RLSGEGVGPV; listed as Homo sapiens) [compound 54] | +++ (>50 = +++)
37 (ILLEDVFQL; listed as Homo sapiens) [compound 37] | ++++ (>75% = ++++)
71 (SLFPYVVLI; listed as Homo sapiens) [compound 71] | ++++ (>75% = ++++)
63 (ALMDEINFMKM; listed as Homo sapiens) [compound 63] | ++++ (>75% = ++++)
33 (AIYEGVGWNV; listed as Homo sapiens) [compound 33] | ++++ (>75% = ++++)
64 (KILESLFVSL; listed as Homo sapiens) [compound 64] | +++ (>50 = +++)

The next lines start with the values.

Peptide exchange (MHC class I binding score, peptide exchange yield) | Substance
++++ (>75% = ++++) | 89 (VLDEGLTSV; listed as Homo sapiens) [compound 89]
+++ (>50 = +++) | 74 (SLTSFLISL; listed as Homo sapiens) [compound 74]
++++ (>75% = ++++) | 36 (GLWSSIFSL; listed as Homo sapiens) [compound 36]
++++ (>75% = ++++) | 65 (ALWGFFPVLL; listed as Homo sapiens) [compound 65]
++ (>20% = ++) | 68 (KILEMDDPRA; listed as Homo sapiens) [compound 68]
++++ (>75% = ++++) | 90 (TLNDGVVVQV; listed as Homo sapiens) [compound 90]
++ (>20% = ++) | 9 (STASAITPSV; listed as Homo sapiens) [compound 9]
+++ (>50 = +++) | 6 (ALYDAELSQM; listed as Homo sapiens) [compound 6]
++++ (>75% = ++++) | 62 (ILSSACYTV; listed as Homo sapiens) [compound 62]
++++ (>75% = ++++) | 49 (YLWEAHTNI; listed as Homo sapiens) [compound 49]
+++ (>50 = +++) | 60 (SLGNFKDDLL; listed as Homo sapiens) [compound 60]
+++ (>50 = +++) | 5 (VCPPGGIQEV; listed as Homo sapiens) [compound 5]
+++ (>50 = +++) | 79 (GLHQDFPSVVL; listed as Homo sapiens) [compound 79]
+++ (>50 = +++) | 22 (KLPEPCPSTV; listed as Homo sapiens) [compound 22]
++++ (>75% = ++++) | 84 (ALMAGCIQEA; listed as Homo sapiens) [compound 84]
++++ (>75% = ++++) | 35 (ALVGDVILTV; listed as Homo sapiens) [compound 35]
++++ (>75% = ++++) | 83 (QLLQYVYNL; listed as Homo sapiens) [compound 83]
+++ (>50 = +++) | 7 (ALEEANADLEV; listed as Homo sapiens) [compound 7]
++++ (>75% = ++++) | 75 (ALASAPTSV; listed as Homo sapiens) [compound 75]

Peptide exchange (MHC class I binding score, peptide exchange yield) | Substance
++++ (>75% = ++++) | 43 (AVLGGKLYV; listed as Homo sapiens) [compound 43]
+++ (>50 = +++) | 85 (QLIEKITQV; listed as Homo sapiens) [compound 85]
++++ (>75% = ++++) | 42 (ALYTSGHLL; listed as Homo sapiens) [compound 42]
++++ (>75% = ++++) | 67 (AQLNLIWQL; listed as Homo sapiens) [compound 67]
++++ (>75% = ++++) | 25 (SLCPPGGIQEV; listed as Homo sapiens) [compound 25]
++++ (>75% = ++++) | 27 (YLAEPQWAV; listed as Homo sapiens) [compound 27]
++++ (>75% = ++++) | 50 (ALSNVVHKV; listed as Homo sapiens) [compound 50]
+++ (>50 = +++) | 55 (VLNVGVAEV; listed as Homo sapiens) [compound 55]
++++ (>75% = ++++) | 69 (YVMESMTYL; listed as Homo sapiens) [compound 69]
++++ (>75% = ++++) | 72 (SLDGNPLAV; listed as Homo sapiens) [compound 72]
++++ (>75% = ++++) | 53 (RLVEVGGDVQL; listed as Homo sapiens) [compound 53]
+++ (>50 = +++) | 23 (SLPESGLLSV; listed as Homo sapiens) [compound 23]
++++ (>75% = ++++) | 70 (FLFPAFLTA; listed as Homo sapiens) [compound 70]
++++ (>75% = ++++) | 38 (KLLPGVQYV; listed as Homo sapiens) [compound 38]
+++ (>50 = +++) | 73 (YIDPYKLLPL; listed as Homo sapiens) [compound 73]
+++ (>50 = +++) | 15 (SMLNNIINL; listed as Homo sapiens) [compound 15]
+++ (>50 = +++) | 52 (LLFTGLVSGV; listed as Homo sapiens) [compound 52]
+++ (>50 = +++) | 59 (YLQNEVFGL; listed as Homo sapiens) [compound 59]
